Laboratory results reported in patent US20120251547A1 (Amgen, published 2012).

Columns and labels:
[1] = target: T1, cynomolgus IL-17RA, on cells (cynomolgus); assay: FACS competition: non-clonal supernatant inhibiting biotin-huIL-17A (competitor) binding to cyno IL-17RA+ CHO cells
T1 construct: whole, on cells; also called CHO-cynoIL-17RA; cyno IL-17RA+ CHO cells
Method: The anti-IL-17RA antibodies were characterized. Non-clonal hybridoma supernatants were prepared in volumes of 1-2 mls (the Ig concentrations were not determined for these supernatants).

huIL-17RA-FLAG-polyHis [2] = target: T2, huIL-17RA-FLAG-polyHis (human, UniProt Q96F46 33-320); assay: binning; IL-17RA held by bead mAb B
T2 construct: also called IL-17RA-FLAG-pHis; wild-type IL-17RA
Method: (§1) The method employed the Bio-Plex Workstation and software (BioRad, Hercules, Calif.), as well as reagents from Luminex® Corp. (Austin, Tex.). […] The mouse-anti-human IgG coating was evaluated and the beads quantified by FACS. Each bead code was separately incubated with 10 ul of anti-IL-17RA antibody for 1 hour at room temperature and then washed. The beads were pooled and then dispensed to a 96-well filter plate (Millipore, Billerica, Mass., product #MSBVN1250). […] The PE-tagged monovalent antibody will detect the presence of the second mAb added to the well, but not the first mAb captured by the monovalent mouse-anti-human IgG antibody. Beads were resuspended in 120u1 PBSAT and at least 100 events/bead code were collected on the Bio-Plex workstation as per the manufacturer's recommended protocol.

huIL-17RA-FLAG-polyHis [3] = target: T2, huIL-17RA-FLAG-polyHis; assay: binning; IL-17RA held by bead mAb O
Method: as §1

chimera K [4] = target: T3, chimera K; assay: Bio-Plex titration on His-captured chimera;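 note: binding of anti-IL-17RA antibodies (4-fold titration across about 5 logs, 1 h) to His-captured IL-17RA chimeras on multiplexed beads, MFI read as percent of maximal wild-type human IL-17RA signal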
T3 construct: human IL-17RA extracellular domain with mouse Domains A and F; also called Construct K
Method: (§2) Twelve bead codes of pentaHis-coated beads (Qiagen, Valencia, Calif.; see wwwl.qiagen.com) were used to capture histidine-tagged protein. The 12 bead codes allowed the multiplexing of 11 chimeric and the wild type human IL-17RA.
(§3) The beads were washed as per the manufacturer's protocol and the 12 bead set was pooled and aliquoted into 2 or 3 columns of a 96-well filter plate (Millipore, Billerica, Mass., product #MSBVN1250) for duplicate or triplicate assay points, respectively. 100 ul anti-IL-17RA antibodies in 4-fold dilutions were added to the wells, incubated for 1 hour at room temperature, and washed. […] Beads were resuspended in 1% BSA, shaken for 3 minutes, and read on the Bio-Plex workstation. Antibody binding to IL-17RA chimeric protein was compared to antibody binding to the human IL-17RA wild-type from the same pool. A titration of antibody over approximately a 5 log scale was performed. Median Fluorescence Intensity (MFI) of chimeric proteins was graphed as a percent of maximum wild-type human IL-17RA signal.

chimera F [5] = target: T4, chimera F; assay: Bio-Plex titration on His-captured chimera;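 note: binding of anti-IL-17RA antibodies (4-fold titration across about 5 logs, 1 h) to His-captured IL-17RA chimeras on multiplexed beads, MFI read as percent of maximal wild-type human IL-17RA signal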
T4 construct: human IL-17RA extracellular domain with mouse Domain F; column head 229-319; also called Construct F
Method: as §2, §3

chimera M [6] = target: T5, chimera M; assay: Bio-Plex titration on His-captured chimera;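 note: binding of anti-IL-17RA antibodies (4-fold titration across about 5 logs, 1 h) to His-captured IL-17RA chimeras on multiplexed beads, MFI read as percent of maximal wild-type human IL-17RA signal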
T5 construct: human IL-17RA extracellular domain with mouse Domains C and F; also called Construct M
Method: as §2, §3

huIL-17RA-FLAG-polyHis [7] = target: T2, huIL-17RA-FLAG-polyHis; assay: binning; IL-17RA held by bead mAb J
Method: The method employed the Bio-Plex Workstation and software (BioRad, Hercules, Calif.), as well as reagents from Luminex® Corp. (Austin, Tex.). The manufacturers' basic protocols were followed except where noted below (see www.bio-rad.com and www.luminexcorp.com for details). […] The mouse-anti-human IgG coating was evaluated and the beads quantified by FACS. Each bead code was separately incubated with 10 ul of anti-IL-17RA antibody for 1 hour at room temperature and then washed. The beads were pooled and then dispensed to a 96-well filter plate (Millipore, Billerica, Mass., product #MSBVN1250). […] The PE-tagged monovalent antibody will detect the presence of the second mAb added to the well, but not the first mAb captured by the monovalent mouse-anti-human IgG antibody. Beads were resuspended in 120u1 PBSAT and at least 100 events/bead code were collected on the Bio-Plex workstation as per the manufacturer's recommended protocol.

huIL-17RA-FLAG-polyHis [8] = target: T2, huIL-17RA-FLAG-polyHis; assay: binning; IL-17RA held by bead mAb M
huIL-17RA-FLAG-polyHis [9] = target: T2, huIL-17RA-FLAG-polyHis; assay: binning; IL-17RA held by bead mAb F
Method: as §1

[10] = target: T6, human IL-17RA, full-length, on cells (human, UniProt Q96F46 33-866); assay: cell-based or functional assay
huIL-17RA-FLAG-polyHis [11] = target: T2, huIL-17RA-FLAG-polyHis; assay: SPR Biacore 3000, mAb captured on anti-human IgG CM4 chip, soluble huIL-17RA-FLAG-polyHis as analyte, 25 C, 1:1 model
Method: In vitro binding of IL-17RA mAbs was assayed. The binding affinities of IL-17RA antibodies were measured by surface plasmon resonance using a Biacore 3000® instrument by standard methods known in the art. Antibody candidates were captured on CM4 chips derivatized with goat anti-human IgG (H+ L) antibody (Jackson Immuno Research, Bar Harbor, Me.). A CM4 chip coated with goat anti-human IgG (H+ L) antibody but without captured antibody was used as a reference.
Experiments were conducted at 25° C. using a 50 uL/min flow rate. Data was fit to a 1:1 Model+Local Rmax using BIAeval Software® (v4.1).

chimera D = target: T7, chimera D; assay: Bio-Plex titration on His-captured chimera;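 note: binding of anti-IL-17RA antibodies (4-fold titration across about 5 logs, 1 h) to His-captured IL-17RA chimeras on multiplexed beads, MFI read as percent of maximal wild-type human IL-17RA signal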
T7 construct: human IL-17RA extracellular domain with mouse Domain D; column head 176-197; also called Construct D
Method: as §2, §3
T7 IL-17RA extracellular domain with FLAG-polyHis tag: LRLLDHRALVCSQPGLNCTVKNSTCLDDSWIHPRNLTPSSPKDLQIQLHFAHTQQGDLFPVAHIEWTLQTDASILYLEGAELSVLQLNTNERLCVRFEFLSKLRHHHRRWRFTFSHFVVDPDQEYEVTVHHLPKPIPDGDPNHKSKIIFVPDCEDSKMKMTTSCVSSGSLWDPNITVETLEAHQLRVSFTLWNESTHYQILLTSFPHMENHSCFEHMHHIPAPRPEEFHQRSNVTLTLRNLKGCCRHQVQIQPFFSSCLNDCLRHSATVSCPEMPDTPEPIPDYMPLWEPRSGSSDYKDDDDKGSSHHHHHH

chimera J = target: T8, chimera J; assay: Bio-Plex titration on His-captured chimera
T8 construct: human IL-17RA extracellular domain with mouse Domains D and E; column head D+E; also called Construct J
Method: as §2, §3

[12] = target: T6, human IL-17RA, full-length, on cells; assay: cell-based or functional assay; remark: listed apart in the source
muIL-17RA-FLAG-polyHis = target: T9, muIL-17RA-FLAG-polyHis (mouse, UniProt Q60943 32-322); assay: Bio-Plex, His-tagged muIL-17RA on pentaHis beads, antibody titration
T9 construct: also called mouse IL-17RA; mu WT
T9 sequence (Q60943 32-322 limits assumed): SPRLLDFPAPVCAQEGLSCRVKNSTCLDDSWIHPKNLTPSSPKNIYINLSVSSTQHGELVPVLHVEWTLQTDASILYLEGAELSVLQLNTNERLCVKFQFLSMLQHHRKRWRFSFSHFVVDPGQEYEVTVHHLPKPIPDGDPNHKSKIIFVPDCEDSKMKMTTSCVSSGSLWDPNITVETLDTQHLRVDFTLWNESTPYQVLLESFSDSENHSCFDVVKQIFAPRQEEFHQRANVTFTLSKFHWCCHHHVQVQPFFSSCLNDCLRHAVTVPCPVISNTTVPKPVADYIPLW

chimera K [13] = target: T3, chimera K; assay: Bio-Plex titration on His-captured chimera; cell bold in heavy box (shaded: lost binding)
Method: as §2, §3

chimera M [14] = target: T5, chimera M; assay: as above
Method: as §2, §3

chimera L = target: T10, chimera L; assay: as above
T10 construct: human IL-17RA extracellular domain with mouse Domains B and F; B+F; also called Construct L
Method: as §2, §3

chimera F [15] = target: T4, chimera F; assay: Bio-Plex titration on His-captured chimera; cell not bold in the scan
Method: as §2, §3

B1: AMH21/AML21 (antibody, IgG2, V domains shown)
VH: EVQLVESGGGSVQPGGSLRLSCAASGFTFSSYSMNWVRQAPGKGLEWVSIISSRSSIIHYADSVKGRFTISRDNAKNSLYLQMNSLRDEDTAVYYCARPKVGGGMDVWGQGTTVTVSS
VL: DIQMTQSPSSLSASVGDRVTITCRASQGISNYLAWYQQKPGKFPELLIYAASTLQSGVPSRFSGSGSGTDFTLTISSLQPEDVATYYCQKYNRAPFTFGPGTKVDIK
notes: human mAb from IgG2 XenoMouse mice; also called AM-21; antibody Q
**Q.** B1 was tested. Which MFI [1] did it give?
**A.** 6

**Q.** What about the “normalized MFI” value (huIL-17RA-FLAG-polyHis [2]) of the same binder?
**A.** 1900

**Q.** And the “normalized MFI” value (huIL-17RA-FLAG-polyHis [3])?
**A.** 175

**Q.** What about the EC50 (chimera K [4]) of the same binder?
**A.** 0.017 nM

**Q.** What about the EC50 (chimera F [5]) of the same binder?
**A.** 0.026 nM

**Q.** And the EC50 (chimera M [6])?
**A.** 0.035 nM

**Q.** And the “normalized MFI” value (huIL-17RA-FLAG-polyHis [7])?
**A.** 23

**Q.** And the “normalized MFI” value (huIL-17RA-FLAG-polyHis [8])?
**A.** 44.5

**Q.** What about the “normalized MFI” value (huIL-17RA-FLAG-polyHis [9]) of the same binder?
**A.** 2200

**Q.** And the “IL-17A/HFF bioassay IC50, subclone 4” value [10]?
**A.** 2.3 nM

**Q.** What about the “IL-17A/HFF bioassay IC50, subclone 5” value [10] of the same binder?
**A.** 3.1 nM

**Q.** What about the “IL-17A/HFF bioassay IC50, subclone 6” value [10] of the same binder?
**A.** 3.3 nM

B2: AMH20/AML20 (antibody, IgG2, V domains shown)
VH: EVQLVESGGGLVQPGGSLRLSCAASGFTFSSYSMNWVRQAPGKGLEWVSFISARSSTIYYADSVKGRFTISRDNAKNSLYLQMNSLRDEDTAVYYCARPKVGGGMDVWGQGTTVTVSS
VL: DIQMTQSPSSLSASVGDRVTITCRASQGISNYLAWYQQKPGKFPELLIYAASTLQSGVPSRFSGSGSGTDFTLTISSLQPEDVATYYCQKYNRAPFTFGPGTKVDIK
notes: human mAb from IgG2 XenoMouse mice; also called AM-20; antibody R
**Q.** Which “normalized MFI” value (huIL-17RA-FLAG-polyHis [2]) does the source give for B2 here?
**A.** 1060

**Q.** And the “normalized MFI” value (huIL-17RA-FLAG-polyHis [3])?
**A.** 140

**Q.** What about the EC50 (chimera K [4]) of the same binder?
**A.** 0.022 nM

**Q.** And the EC50 (chimera F [5])?
**A.** 0.029 nM

**Q.** And the EC50 (chimera M [6])?
**A.** 0.04 nM

**Q.** And the “normalized MFI” value (huIL-17RA-FLAG-polyHis [7])?
**A.** 26

**Q.** And the “normalized MFI” value (huIL-17RA-FLAG-polyHis [8])?
**A.** 24

**Q.** And the “normalized MFI” value (huIL-17RA-FLAG-polyHis [9])?
**A.** 1240

**Q.** What about the “IL-17A/HFF bioassay IC50, subclone 7” value [10] of the same binder?
**A.** 8.1 nM

**Q.** And the “IL-17A/HFF bioassay IC50, subclone 8” value [10]?
**A.** 6.6 nM

**Q.** What about the “IL-17A/HFF bioassay IC50, subclone 9” value [10] of the same binder?
**A.** 6.7 nM

B3: AMH18/AML18 (antibody, IgG2, V domains shown)
VH: QVQLVQSGAEVKKPGASVKVSCKASGYSFTDYYMHWVRQAPGQGLEWMGWMHPNSGGTDLAQRFQGRVTMTRDTSISTAYMELSRLRSDDTAVYYCARGGYCSTLSCSFYWYFDLWGRGTLVTVSS
VL: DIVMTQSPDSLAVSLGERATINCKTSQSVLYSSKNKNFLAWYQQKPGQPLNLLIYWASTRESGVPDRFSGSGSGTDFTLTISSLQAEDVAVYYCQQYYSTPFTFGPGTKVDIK
notes: human mAb from IgG2 XenoMouse mice; also called AM-18; antibody G
**Q.** What does the source list for B3?
**A.** Ka (huIL-17RA-FLAG-polyHis [11]): 1.01e+08 M⁻¹; Kd (huIL-17RA-FLAG-polyHis [11]): 9.88 nM; koff (huIL-17RA-FLAG-polyHis [11]): 0.00101 s⁻¹; kon (huIL-17RA-FLAG-polyHis [11]): 102000 M⁻¹ s⁻¹; normalized MFI (huIL-17RA-FLAG-polyHis [2]): 1300; normalized MFI (huIL-17RA-FLAG-polyHis [3]): 5380; EC50 (chimera D): 0.059 nM; EC50 (chimera J): 0.064 nM; IL-17A/HFF IC50 [12]: 0.33 nM; IL-17A/lung fibroblast IC50 [12]: 0.081 nM; IL-17F/HFF IC50 [12]: 0.073 nM; normalized MFI (huIL-17RA-FLAG-polyHis [7]): 2900; binding result (muIL-17RA-FLAG-polyHis): no binding; EC50 (chimera K [13]): 31.3 nM; EC50 (chimera M [14]): 1.55 nM; EC50 cell printed as zero (binding ablated) (chimera L): 0 nM; normalized MFI (huIL-17RA-FLAG-polyHis [8]): 2380; normalized MFI (huIL-17RA-FLAG-polyHis [9]): 304; IL-17A/HFF bioassay IC50, subclone 14 [10]: 0.44 nM; IL-17A/HFF bioassay IC50, subclone 15 [10]: 0.4 nM; IL-17A/HFF bioassay IC50, subclone 16 [10]: 0.17 nM; EC50 (chimera F [15]): 3.1 µM
